Values of other authors as cited in paper PMC3288358 (ACS Chemical Biology, 2011).

Key:
hMc3R = hMc3R (Homo sapiens, UniProt P41968); conditions: read-out: Mc3R EC50; cAMP assay; data adapted from ref Wilczynski et al. ([34])
male Long-Evans rats = conditions: requires higher minimal doses for activation; ref [8]

Sequence of hMc3R (P41968 whole entry): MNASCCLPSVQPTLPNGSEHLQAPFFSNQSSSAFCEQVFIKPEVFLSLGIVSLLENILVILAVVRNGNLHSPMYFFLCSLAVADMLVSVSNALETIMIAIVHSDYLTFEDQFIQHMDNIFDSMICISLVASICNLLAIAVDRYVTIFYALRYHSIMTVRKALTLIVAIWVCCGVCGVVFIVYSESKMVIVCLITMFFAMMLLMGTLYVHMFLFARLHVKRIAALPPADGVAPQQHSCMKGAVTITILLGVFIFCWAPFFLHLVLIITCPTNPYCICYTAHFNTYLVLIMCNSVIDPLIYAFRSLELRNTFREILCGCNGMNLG

Substance	EC50 (hMc3R)	Long-term feeding response compared with AgRP (male Long-Evans rats)
AgRP(87-132): Truncated AgRP lacking the four residue N-terminal segment, N-terminal acetylated	8.9 ± 0.2 nM	
SHU9119		long-term response similar to AgRP
